4 molecules from patent US20190359726A1 (CRAGE MEDICAL, published 2019) can be followed below.

Numbering of substitutions follows the chain as printed.

The target of experiment [1] is T1, human BCMA, full length, on cells (human, UniProt Q02223 1-184).
T1 construct: the cell line is named in each row's assay; also called K562-BCMA; K562 stably expressing BCMA
T1 sequence: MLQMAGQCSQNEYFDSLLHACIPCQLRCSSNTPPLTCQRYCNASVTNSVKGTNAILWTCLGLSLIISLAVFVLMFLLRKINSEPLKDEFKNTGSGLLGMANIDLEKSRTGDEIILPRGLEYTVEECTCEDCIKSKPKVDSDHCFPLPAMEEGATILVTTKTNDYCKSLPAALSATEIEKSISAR
As to the kind of experiment: flow cytometry on K562-BCMA cells, scFv_Fc titrated, FITC anti-human Fc. How it is done:
K562 and K562 cells (K562-BCMA) stably expressing human BCMA were used and harvested, washed with complete growth medium, and plated into U-bottom microtiter plates at about 1 to 5×10⁵ cells/well. The gradient-diluted scFv_Fc fusion antibody was incubated with K562-BCMA/K562 for 30 minutes on ice, and then incubated with FITC-labeled anti-human Fc as a secondary antibody. After two washing steps, the analysis was performed using a Guava easyCyte™ HT System, and the experimental data was processed using GraphPad Prism to obtain an EC50.
(In general: In flow cytometry, cells or beads pass a laser one at a time.)

Experiment [2] deals with T2, BAFF R (R&D, #1162-BR) (human, UniProt Q96RJ3 7-71, limits assumed).
T2 construct: Bought reagent; also called human BAFF R
T2 sequence (looked up): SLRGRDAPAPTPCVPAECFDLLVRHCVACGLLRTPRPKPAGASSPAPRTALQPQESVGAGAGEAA
In words: ELISA(scFv), 2 ug/ml coated antigen, HRP anti-Flag tag antibody. How it is done:
(§1) 2 ug/ml recombinant human BCMA Fc, mouse BCMA Fc, TACI huFc (R&D, #174TC), BAFF R (R&D, #1162-BR) were coated on immunoplates at 4° C. overnight. The next day, 300 μl/well of 2% MPBS was added for 2 hours, then 200 nM purified antibody (scFv format) was added and incubated at 37° C. for 1 hour, washed three times with PBST (PBS containing 0.05% Tween-20), and washed three times with PBS. And then 1:4000 diluted HRP-labeled anti-Flag tag antibody (sigma, #A8592-1MG) was added, incubated for 1 hour at 37° C., washed three times with PBST (PBS containing 0.05% Tween-20) and washed three times with PBS. 100 ul/well of TMBS substrate was added and developed for 10-15 minutes. The reaction was quenched by adding 50 ul of 2 M sulfuric acid.
For orientation: In an ELISA, binding on a coated surface is turned into a signal by an enzyme label.

Experiment [3] has as its target T3, TACI huFc (R&D, #174TC) (human, UniProt O14836 2-166, limits assumed).
T3 construct: Bought reagent; also called human TACI; not shown: human Fc (huFc)
T3 sequence (looked up): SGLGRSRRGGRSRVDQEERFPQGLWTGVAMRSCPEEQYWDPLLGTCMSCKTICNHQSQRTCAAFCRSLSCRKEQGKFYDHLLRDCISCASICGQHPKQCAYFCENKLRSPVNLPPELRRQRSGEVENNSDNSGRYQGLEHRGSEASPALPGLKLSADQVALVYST
Described as above. How it is done:
as §1

Experiment [4] addresses BCMA_huFc (human). As to the kind of experiment: biacore, supernatant of the clone after reinduction. (In general: Surface plasmon resonance follows binding to a sensor surface in real time, without labels.)
The target of experiment [5] is BCMA_huFc (human). In words: biacore, supernatant of the clone after reinduction; column headed Dissociation constant (Kd, S^-1).
The target in experiment [6] is T4, recombinant human BCMA Fc (human, UniProt Q02223 1-54).
T4 construct: not shown: Fc
T4 sequence: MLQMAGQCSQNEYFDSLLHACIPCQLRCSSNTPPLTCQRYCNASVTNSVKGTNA
In words: ELISA(scFv), 2 ug/ml coated antigen, 200 nM scFv, HRP anti-Flag tag antibody. How it is done:
as §1

B1: 25C2 (scFv_Fc) (Fc fusion)
chain: EVQLLESGGGLVQPGGSLRLSCAASGFTFGGNAMSWVRQAPGKGLEWVSAISGNGGSTFYADSVKGRFTISRDNSKNTLYLQMNSLRAEDTAVYYCAKVRPFWGTFDYWGQGTLVTVSSGGGGSGGGGSGGGGSEIVLTQSPGTLSLSPGERATLSCRASQSVSSSYLAWYQQKPGQAPRLLIYGASSRATGIPDRFSGSGSGTDFTLTISRLEPEDFAVYYCQQYFNPPEYTFGQGTKVEIK
notes: also called clone 25C2; not shown: human Fc fragment of vector V152
By EC50 is commonly meant the concentration at which the effect is half-maximal. The low end stands for an effect from little substance, the high end for a need for much substance. Turning to B1, in experiment [1], the half-maximal effective concentration (EC50) is 2.59 nM. In other words, the single-digit nanomolar range.

B2: 25D2 (scFv_Fc) (Fc fusion)
chain: B1 chain with G30R, G31S, N32Y, N54G, S57N
notes: also called clone 25D2; not shown: human Fc fragment of vector V152
With B2, the concentration giving a half-maximal response (EC50) in experiment [1] is 1.89 nM.

B3: 25C2 scFv (scFv)
scFv: EVQLLESGGGLVQPGGSLRLSCAASGFTFGGNAMSWVRQAPGKGLEWVSAISGNGGSTFYADSVKGRFTISRDNSKNTLYLQMNSLRAEDTAVYYCAKVRPFWGTFDYWGQGTLVTVSSGGGGSGGGGSGGGGSEIVLTQSPGTLSLSPGERATLSCRASQSVSSSYLAWYQQKPGQAPRLLIYGASSRATGIPDRFSGSGSGTDFTLTISRLEPEDFAVYYCQQYFNPPEYTFGQGTKVEIKR
notes: scFv format; also called clone 25C2
Usually koff stands for the first-order rate constant of dissociation. Higher therefore signals fast dissociation. In the case of B3, the binding result in experiment [2] is given as “no binding (tested: 200 nM)”; in experiment [3] it was “no binding (tested: 200 nM)”; in experiment [6] it was “binds”. For the same molecule, the “fold lower Kd (dissociation rate) than parental clone 23F10” value in experiment [4] stood at 10 times. For the same molecule, the dissociation rate constant (koff) in experiment [5] came to 0.000364 s⁻¹.

B4: 25D2 scFv (scFv)
scFv: B3 scFv with G30R, G31S, N32Y, N54G, S57N
notes: scFv format; also called clone 25D2
With B4, the binding result was “no binding (tested: 200 nM)” in experiment [2], “no binding (tested: 200 nM)” in experiment [3] and “binds” in experiment [6]. In addition, in experiment [4], the “fold lower Kd (dissociation rate) than parental clone 23F10” value came out at 10 times. The molecule further returned a koff in experiment [5] of 0.000374 s⁻¹.
